By Km is commonly meant the substrate concentration at which the rate is half of its maximum.

Our source for the Km values is paper PMC10473253, “A novel salt- and organic solvent-tolerant phosphite dehydrogenase from Cyanothece sp. ATCC 51142” (Frontiers in Bioengineering and Biotechnology, 2023).

Common to all, as to test: purified protein
Holding throughout (type): biochemical, Crocosphaera subtropica

Substrate in data set [1]: NC(=O)c1ccc[n+]([C@@H]2O[C@H](COP(=O)(O)OP(=O)(O)OC[C@H]3O[C@@H](n4cnc5c(N)ncnc54)[C@H](OP(=O)(O)O)[C@@H]3O)[C@@H](O)[C@H]2O)c1
As to conditions: 1.0 mM phosphite, 100 mM MOPS pH 7.3, 37°C.

Substrate in data set [2]: NC(=O)c1ccc[n+]([C@@H]2O[C@H](COP(=O)(O)OP(=O)(O)OC[C@H]3O[C@@H](n4cnc5c(N)ncnc54)[C@H](O)[C@@H]3O)[C@@H](O)[C@H]2O)c1
The following applies: 1.0 mM phosphite, 100 mM MOPS pH 7.3, 37°C, text b35 prints kcat 2.24 ± 0.15.

Substrate in data set [3]: O=[PH](O)O
As to conditions: 1.0 mM NAD+ as co-substrate, 100 mM MOPS pH 7.3, 37°C.

B1: Ct-PtxD (Crocosphaera subtropica ATCC 51142) (protein)
chain: MNQKPKVVITHWVHPEIIDYLTPHCELILNQTKETLTREEVINRSKDAQGLMVFMPDYIDVNFLEACPQLKVISGALRGYDNFDVEACTKRNIWFTIVPDLLAAPTAELTIGLLLILARRMVEGDRLIRSGNFQGWKPQLYSTGLLNKTLGIIGMGKLGKALTKRLMGFDMTLLYHDKITLTSQQERDWKITKTSLEELLTKSDYVVLMVPLVPDTYHLINENSLKMMKPNSFLINPCRGSIVDETAVATAIKSGHLAGYAADVFEMEDWAIANRPQSINQTLLTDINHTFFTPHLGSAVNEVRRDIALEAAKNIIEVLSENRPQGAVNGIV
notes: full-length, 332 residues; pET-21b(+) NdeI/XhoI, His-tagged, E. coli Rosetta2 (DE3) pLysS
For the protein B1, the Km was 122 ± 4 µM in data set [1], 9.07 ± 1.05 µM in data set [2] and 168 ± 25 µM in data set [3].
